The record followed here is publication PMC8927860, “Completing the family of human Eps15 homology domains: Solution structure of the internal Eps15 homology domain of γ‐synergin” (Protein Science : A Publication of the Protein Society, 2022).

For data set [1], the target named is T1, EH domain of γ‐synergin (EHγ, residues 279–388) (Homo sapiens, UniProt Q9UMZ2).
T1 construct: His-tag with TEV cleavage site (N, cleaved yes); made in house; host or cells: Escherichia coli BL21(DE3)
T1 sequence (Q9UMZ2 279-388): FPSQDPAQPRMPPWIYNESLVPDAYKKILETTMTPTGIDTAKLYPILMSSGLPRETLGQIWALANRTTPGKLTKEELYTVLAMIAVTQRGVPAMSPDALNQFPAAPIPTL
Kind of data set: Isothermal titration calorimetry of SCAMP1 fragments and peptides with EHγ. The following applies: ITC; for ∆H / ∆S / N (stoichiometry) / KD: 20 mM Tris, 100 mM NaCl, 2 mM CaCl2 pH 7.5, 20°C, one site binding model; for ∆H / ∆S / KD: n.b. = no binding; for N (stoichiometry) / KD: VP-ITC, 50–200 μM EHγ in cell, ligand 700–2000 μM. The format is binding. The protocol: ITC measurements were performed on a VP‐ITC instruments (GE Healthcare, Chalfont St. Giles, UK). The calorimetric cell (with a total cell volume of 1,400 μl) contained 50–200 μM EHγ in 20 mM Tris, 100 mM NaCl, 2 mM CaCl2 pH 7.5. SCAMP1 fragments and peptides A, B, C at 700–2000 μM were titrated into the cell at 20°C. The heat generated after each ligand injection was obtained by integration of the calorimetric signal. Resulting binding isotherms were analyzed according to an one site binding model using the Origin software (OriginLab Corp., Northampton, MA, USA).
Background: Isothermal titration calorimetry measures the heat released or taken up as one component is titrated into another.

Data set [2] concerns the target T1, EH domain of γ‐synergin (EHγ, residues 279–388). Kind of data set: Analytical size exclusion chromatography of EHγ–SCAMP1″ complex. The following applies: complex compared with isolated EHγ and SCAMP1″; 100 μM EHγ and/or 100 μM SCAMP 1–52, Superdex 200 5/150 GL, 20 mM Tris pH 7.5, 100 mM NaCl, 2 mM CaCl2, 4°C. The format is binding. The protocol:
The quality and oligomeric state of the EHγ construct was assessed on an analytical gel filtration column (Superdex 75 5/150 GL, GE Healthcare). To guarantee reproducible and reliable gel filtration runs, an ÄKTAmicro™ (GE Healthcare) was coupled to an auto sampler, which automatically injected with high‐precision 25 μl of protein sample.[36] Analytical gel filtration runs were performed in duplicates in the cold room at a flow rate of 0.2 ml/min in gel filtration buffer (20 mM Tris pH 7.5, 100 mM NaCl, 2 mM CaCl2). The used EHγ construct was injected spanning a concentration range of 10–1,000 μM. The column has been calibrated with protein standards ranging from 6.5 to 75 kDa. Interactions between EHγ and the SCAMP 1–52 fragment were also probed using this analytical gel filtration setup; the proteins alone or the potential complex (at concentrations of 100 μM EHγ and/or 100 μM SCAMP 1–52) were applied to a Superdex™ 200 5/150 GL analytical gel filtration column and analyzed. Analytical gel filtration runs were performed at 4°C at a flow rate of 0.2 ml/min in the gel filtration buffer.

For data set [3], the target named is T2, EH domain of human γ-synergin, longest construct (residues 279–388) (human, UniProt Q9UMZ2 279-388).
T2 chain: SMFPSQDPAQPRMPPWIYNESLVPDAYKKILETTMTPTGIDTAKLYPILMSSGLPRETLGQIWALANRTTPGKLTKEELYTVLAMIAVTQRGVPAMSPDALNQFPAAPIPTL
Kind of data set: ITC.

Data set [4] concerns the target T3, EH domain of human γ-synergin, longest construct (residues 279–388) (human, UniProt Q9UMZ2 279-388).
T3 construct: two additional residues (Serine-Methionine) left at the N-terminus by the vector pNIC28-Bsa4 after TEV cleavage of the tag; γ-synergin, human, residues 279-388 (EH domain with N- and C-terminal structured extensions); also called EHγ; EHγ domain; source: E. coli BL21(DE3), purified (Ni-IMAC, TEV cleavage, SEC on Superdex 75); 15N-labelled in M9 medium for NMR; not shown: His tag, N-terminal, …
T3 sequence: T2 chain
Kind of data set: NMR titration; unlabelled peptide added stepwise to 15N-labelled EHγ, 1H-15N HSQC, up to n = 2 (Pep A, C) and n = 3.2 (Pep B); 20 mM Tris pH 7.5, 100 mM NaCl, 2 mM CaCl2, 10% D2O, 298 K; joint fit of I324, L325, W339 to a one site binding model. The following applies: both partners purified.

Data set [5] addresses T3, EH domain of human γ-synergin, longest …. Kind of data set: ITC; EHγ 50–200 μM in the cell, SCAMP1 fragments and peptides A, B, C at 700–2000 μM titrated in; 20 mM Tris, 100 mM NaCl, 2 mM CaCl2 pH 7.5, 20°C; one site binding model. The following applies: both partners purified.

Entries after “also recorded” stand apart in the source; their conditions may differ. Ends that are not written are not given here.

As to SDFDSNPFADPDLNY-NH2 [Peptide A], in data set [1], the “∆H” value is listed as -21.1 ± 2.4 kcal/mol, the “∆S” value is -55.2 cal/mol/deg and the “N (stoichiometry)” value came to 1.2 ± 0.1.
As to “SCAMP1″: NPF repeat rich fragment of SCAMP1 possessing three NPF-motifs (residues 1–52) (MSDFDSNPFADPDLNNPFKDPSVTQVTRNVPPGLDEYNPFSDSRTPPPGGVK; UniProt O15126 1-52, looked up, fragment)”, in data set [1], the “N (stoichiometry)” value came out at 0.33 ± 0.01. The “enthalpic/entropic contribution to binding (in words)” value in data set [1] (SCAMP1″ (three NPF-motifs) compared to sum of / individual peptides A, B, C) is given as “no enthalpic gain; also recorded: largely reduced entropic penalty”. Moreover, in data set [2], the “complex formation by SEC (elution)” value is given as “lower retention volume”.
On to ADPDLNNPFKDPSVTY-NH2 [Peptide B], for which, in data set [1], the “∆H” value is reported as -12.0 ± 1.5 kcal/mol, the “∆S” value is -23.3 cal/mol/deg and the “N (stoichiometry)” value amounted to 1.1 ± 0.2.
For GLDEYNPFSDSRT-NH2 [Peptide C] the same measures were -22.9 ± 2.7 kcal/mol, -59.8 cal/mol/deg and 1.0 ± 0.1.

B1: SCAMP1 (protein)
chain: MSDFDSNPFADPDLNNPFKDPSVTQVTRNVPPGLDEYNPFSDSRTPPPGGVKMPNVPNTQPAIMKPTEEHPAYTQIAKEHALAQAELLKRQEELERKAAELDRREREMQNLSQHGRKNNWPPLPSNFPVG
modifications: N-terminal cytosolic SCAMP1 construct, residues 1-130 (NPF repeats plus coiled coil, no TM helices); Ser-Met left at the N-terminus after TEV cleavage is omitted; human inferred from the hORFeome source
On to B1, for which the equilibrium dissociation constant (Kd) in data set [3] amounted to 9 µM.

B2: SCAMP1: N-terminal SCAMP1 construct devoid of transmembrane helices, comprising NPF repeat rich motifs and coiled coil (residues 1–130) (protein, UniProt O15126 1-130, looked up, fragment)
chain: B1 chain
For the molecule B2, in data set [1], the “∆H” value is -7.5 ± 1.1 kcal/mol, the “∆S” value is recorded as -2.3 cal/mol/deg and the “N (stoichiometry)” value is 0.38 ± 0.04. Moreover, in data set [1] (listed as SCAMP1’), the “∆H” value was “n.b”, the “∆S” value is listed as “n.b”, the “N (stoichiometry)” value is on record as “n.b” and the dissociation constant (KD) entry was “n.b”. For the same molecule, in data set [1] (listed as SCAMP1’’), the “∆H” value is listed as -41.3 ± 1.3 kcal/mol, the “∆S” value is -118.0 cal/mol/deg, the “N (stoichiometry)” value is 0.33 ± 0.01 and the KD came to 9.9 ± 0.4 µM.

B3: peptide A, SCAMP1 derived peptide with a single NPF-repeat (peptide)
chain: SDFDSNPFADPDLNY-NH2
With B3, the Kd in data set [4] turned out to be 110 ± 10 µM; in data set [3], 250 µM.

B4: peptide B, SCAMP1 derived peptide with a single NPF-repeat (peptide)
chain: ADPDLNNPFKDPSVTY-NH2
With B4, the Kd in data set [4] came to 120 ± 30 µM; in data set [3], 140 µM.

B5: SCAMP1′: coiled coil domain of N-terminal SCAMP1, devoid of NPF-repeats (residues 65–130) (protein, UniProt O15126 65-130, looked up, fragment)
chain: KPTEEHPAYTQIAKEHALAQAELLKRQEELERKAAELDRREREMQNLSQHGRKNNWPPLPSNFPVG
With B5, in data set [1], the “N (stoichiometry)” value is on record as “n.b” and the dissociation constant KD entry is on record as “n.b”.

B6: peptide C, SCAMP1 derived peptide with a single NPF-repeat (peptide)
chain: GLDEYNPFSDSRT-NH2
Regarding B6, the Kd came to 30 ± 20 µM in data set [4] and 90 µM in data set [3].

B7: SCAMP1″, NPF repeat rich N-terminal fragment of secretory carrier membrane protein 1 (residues 1–52) (domain or fragment, human (hORFeome collection))
chain: SMMSDFDSNPFADPDLNNPFKDPSVTQVTRNVPPGLDEYNPFSDSRTPPPGGVK
notes: two additional residues (Serine-Methionine) left by the vector pNIC28-Bsa4 after TEV cleavage (same cloning procedure as for EHγ); secretory carrier membrane protein 1 (SCAMP1), residues 1-52, with three NPF repeats; gene from the hORFeome collection; also called SCAMP 1–52 fragment; NPF-repeats from the N-terminal domain of SCAMP1; source: E. coli BL21(DE3), purified (Ni-IMAC, TEV cleavage, …)
As for B7, the binding result in data set [5] is “binds”. Also, the Kd in data set [3] was 9.9 µM.

For orientation: Kd means a measure of binding affinity in units of concentration. The KD is the concentration at which binding is half-saturated.
